This is an account of results in US20230365685A1 (SUZHOU NEOLOGICS BIOSCIENCE, published 2023).

The target in one experiment is T1, cynomolgus TIM-3 (cynomolgus, UniProt A0A2K5U3G7 22-294).
T1 construct: whole, on cells
T1 sequence: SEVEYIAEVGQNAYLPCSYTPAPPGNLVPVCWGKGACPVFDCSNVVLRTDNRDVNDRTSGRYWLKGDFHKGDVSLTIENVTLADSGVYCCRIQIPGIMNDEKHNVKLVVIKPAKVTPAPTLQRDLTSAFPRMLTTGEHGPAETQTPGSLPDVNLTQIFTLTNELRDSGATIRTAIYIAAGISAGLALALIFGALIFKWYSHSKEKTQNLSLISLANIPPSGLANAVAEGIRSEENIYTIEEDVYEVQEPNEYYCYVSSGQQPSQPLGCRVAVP
In words: flow cytometry on 293T cells stably expressing cynomolgus TIM-3, serially diluted antibody, PE-labelled secondary antibody [lower panel].

In experiment [1] the target is T2, human TIM-3 recombinant protein (TIM-3-his) (human, UniProt Q8TDQ0 22-202).
T2 construct: also called TIM-3 protein; not shown: His tag
The experiment in a line: biosensor (HFC sensor, Probe Life): antibody captured, TIM-3-his in solution, 1:1 fit.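 Also: antigen applied as a twofold dilution series, association and dissociation phases recorded, KD obtained as koff divided by kon.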

Protocol for cynomolgus TIM-3: Briefly, serially diluted anti-TIM-3 antibodies were incubated with cell lines stably expressing mouse TIM-3 or cynomolgus TIM-3 (10⁵ cells/well). Then, PE-labelled mouse anti-human IgG antibody (Biolegend) was used as detection antibody. A flow cytometer (Canto II, BD, USA) was used to measure fluorescence.

B1: 3F2 (antibody, V domains shown)
VH: EVQLQQSGPELVKTGSSVKISCKASGYSFTGYYMHWVRQSPGKSLEWIGYISCYNGATNYNQKFKGKATFTVDTYSSTAYMQFDSLASEDSAVYYCVRDYYLSVMDYWGQGTSVTVSS
VL: NIMMTQSPSSLAVSAGEKVTMSCKSSQSVLYSSNQKNYLAWYQQKPGQSPKLLIYWASFRESGVPDRFTGSGSGTDFTLTISSVQAEDLAVYYCHQSLSSYTFGGGTKLEIK
Consider B1, for which, in the experiment with cynomolgus TIM-3, the “EC50 (read off the curve)” value is approximately 0.4 µg/mL. In experiment [1], the Kd is 1.11 nM, the koff was determined as 0.00066 s⁻¹ and the kon worked out at 596000 M⁻¹ s⁻¹.
